Columns and labels:
[1] = target: T1, BMP10 (human, UniProt O95393 317-424); experiment: SPR (Biacore), ligand amine-coupled to chip, Fc fusion injected
T1 construct: also called hBMP-10; hBMP10
T1 sequence: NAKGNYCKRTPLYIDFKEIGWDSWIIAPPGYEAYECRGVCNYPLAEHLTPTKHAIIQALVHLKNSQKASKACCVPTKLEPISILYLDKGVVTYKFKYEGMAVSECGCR

[2] = target: T2, BMP5 (human, UniProt P22003 317-454, limits assumed); experiment: as above
T2 sequence (looked up): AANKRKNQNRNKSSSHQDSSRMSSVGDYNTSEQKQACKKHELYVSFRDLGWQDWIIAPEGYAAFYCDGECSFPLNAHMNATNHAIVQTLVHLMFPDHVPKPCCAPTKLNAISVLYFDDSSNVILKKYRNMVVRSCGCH

[3] = target: T3, BMP9 (human, UniProt Q9UK05 320-429); experiment: SPR (Biacore), ligand amine-coupled to chip, Fc fusion injected; the hFc form had only transient affinity for BMP9
T3 construct: also called hBMP-9; hBMP9
T3 sequence (looked up): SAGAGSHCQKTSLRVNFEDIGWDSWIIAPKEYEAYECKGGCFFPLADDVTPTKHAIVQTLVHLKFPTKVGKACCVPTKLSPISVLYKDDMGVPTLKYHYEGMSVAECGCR
Description: Ligands were immobilized on a Biacore™ CMS chip using standard amine-coupling procedure.

binding result [1]: binds
binding result [2]: no binding
binding result [3]: binds
B1: ActRIIB(L79D 25-131)-mFc (Fc fusion)
chain: ETRECIYYNANWELERTNQSGLERCEGEQDKRLHCYASWRNSSGTIELVKKGCWDDDFNCYDRQECVATEENPQVYFCCCEGNFCNERFTHLPEAGGPEVTYEPPPT
notes: not shown: linker and mouse Fc domain

From patent publication US20200087367A1 (ACCELERON PHARMA, published 2020)
